Results published in patent US20100254988A1.

Assays:
[1] = target: c-Met receptor on OVCAR-8 cells (human) (UniProt P08581); assay: cell-based or functional assay
human c-Met ECD (human) = human c-Met ECD (human) (UniProt P08581); assay: SPR (Biacore T100), antibody captured by anti-Fc gamma antibody, c-Met ECD as analyte, 25 C

With “BsAB02, trivalent bispecific <ErbB-2-c-Met> antibody (full length trastuzumab with one single chain Fab fragment of c-Met 5D5 (humanized) at the C-terminus of the knob heavy chain) (bispecific antibody)” the % Internalization of c-Met after 1 hour on OVCAR-8 cells (=100-% antibody on cell surface) [1] was -7%, the % c-Met receptor on OVCAR-8 cell surface measured after 1 hour [1] was 107% and the Kd (human c-Met ECD (human)) was 8.2 nM.
